Assays:
Human PTH (1-84) [1] = target: T1, Human PTH (1-84) (human); assay: ELISA on coated peptide; B cell supernatant
T1 construct: Synthetic peptide bought from Bachem; also called hPTH1-84; Hu 84mer
T1 peptide: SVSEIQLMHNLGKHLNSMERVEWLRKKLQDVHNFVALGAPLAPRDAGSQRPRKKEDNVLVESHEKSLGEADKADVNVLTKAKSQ

Rat PTH (1-84) [2] = target: T2, Rat PTH (1-84) (rat); assay: ELISA on coated peptide; B cell supernatant
T2 construct: Synthetic peptide bought from Bachem; also called Rat 84mer
T2 peptide: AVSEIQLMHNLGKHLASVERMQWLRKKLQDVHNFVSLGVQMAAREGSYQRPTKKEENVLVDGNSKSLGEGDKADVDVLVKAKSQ

Human PTH (7-84) = target: T3, Human PTH (7-84) (human); assay: ELISA on coated peptide; B cell supernatant
T3 construct: Synthetic peptide bought from Bachem; also called hPTH7-84; 7-84mer
T3 peptide: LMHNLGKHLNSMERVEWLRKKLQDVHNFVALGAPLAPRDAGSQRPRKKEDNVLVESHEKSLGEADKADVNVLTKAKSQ

Human PTH (18-48) = target: T4, Human PTH (18-48) (human); assay: ELISA on coated peptide; B cell supernatant
T4 construct: Synthetic peptide bought from Bachem; also called hPTH18-48; 18-48mer
T4 peptide: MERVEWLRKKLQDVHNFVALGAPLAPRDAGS

[3] = target: T5, Human PTH-related peptide (1-34) (human); assay: indirect: competition ELISA on biotinylated human PTH 1-34
T5 construct: Synthetic peptide bought from Bachem; also called PTH-related protein 1-34; PTHrP
T5 sequence (peptide, as listed by the source): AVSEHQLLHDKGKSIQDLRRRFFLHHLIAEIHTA
Experimental: Biotinylated human PTH 1-34 was bound to streptavidin plates at 1 μg/mL for 30 minutes at RT. The plates were washed 5 times with dH2O. […] The titrated antibody was then transferred to the plate coated with human PTH 1-34 and allowed to bind for 1 hour at RT. After washing the plates 5 times with dH2O, 50 μL of Gt anti-Human (Fc)-HRP at 1 μg/mL was added to each well and the plates held 1 hour at RT. After washing the plates 5 times with dH2O, 50 μL of TMB substrate was added to each well. To stop the reaction, 50 μL of 1M phosphoric acid was added to each well. The plates were read at wavelength 450 nm.

Human PTH (1-34) [4] = target: T6, Human PTH (1-34) (human, not fully specified); assay: BiaCore, 37° C., 34mer
T6 construct: Synthetic peptide bought from Bachem; also called hPTH (1-34); human 34mer
T6 peptide: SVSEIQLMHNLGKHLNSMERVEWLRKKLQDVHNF

Human PTH (1-34) [5] = target: T6, Human PTH (1-34); assay: cell-based or functional assay
Human PTH (1-34) [6] = target: T6, Human PTH (1-34); assay: BiaCore, 25° C., 34mer
Human PTH (1-84) [7] = target: T1, Human PTH (1-84); assay: KinExA, solution equilibrium, room temperature
Text: (§1) Kinetic analysis. […] This method involves solution-based determination of formal affinity measurements at equilibrium. Dual curve analysis with two known antibody concentrations and unknown antigen concentration was used to determine the KD measurements on human 34mer, human 84mer, cynomolgus 84mer and rat 84mer.

Rat PTH (1-84) [8] = target: T2, Rat PTH (1-84); assay: KinExA, solution equilibrium, room temperature
Text: as §1

Human PTH (1-34) [9] = target: T6, Human PTH (1-34); assay: KinExA, solution equilibrium, room temperature
Text: as §1

Cynomolgus PTH (1-84) = target: T7, Cynomolgus PTH (1-84) (cynomolgus); assay: KinExA, solution equilibrium, room temperature
T7 construct: Synthetic peptide (CS Bio Company for the KinExA measurement and the monkey study); also called cynoPTH (1-84); cynomolgus 84mer
T7 peptide: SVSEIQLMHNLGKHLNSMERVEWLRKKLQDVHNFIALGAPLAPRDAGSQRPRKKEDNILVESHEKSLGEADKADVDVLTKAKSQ
Text: as §1

[10] = target: T8, PTH 20-28 peptide RAEWLRKKL; assay: alanine-scanning peptide array
T8 construct: Alanine variant; the entry already holds the change
T8 peptide: RAEWLRKKL

[11] = target: T9, PTH 20-28 peptide RVEWLRKKA; assay: alanine-scanning peptide array
T9 construct: Alanine variant; the entry already holds the change
T9 peptide: RVEWLRKKA

[12] = target: T10, PTH 20-28 peptide AVEWLRKKL; assay: alanine-scanning peptide array
T10 construct: Alanine variant; the entry already holds the change
T10 peptide: AVEWLRKKL

[13] = target: T11, PTH 20-28 peptide RVEWLRAKL; assay: alanine-scanning peptide array
T11 construct: Alanine variant; the entry already holds the change
T11 peptide: RVEWLRAKL

[14] = target: T12, PTH 20-28 peptide RVEWLRKAL; assay: alanine-scanning peptide array
T12 construct: Alanine variant; the entry already holds the change
T12 peptide: RVEWLRKAL

[15] = target: T13, PTH 20-28 peptide RVEWLAKKL; assay: alanine-scanning peptide array
T13 construct: Alanine variant; the entry already holds the change
T13 peptide: RVEWLAKKL

[16] = target: T14, PTH 20-28 peptide RVAWLRKKL; assay: alanine-scanning peptide array
T14 construct: Alanine variant; the entry already holds the change
T14 peptide: RVAWLRKKL

[17] = target: T15, PTH 20-28 peptide RVEALRKKL; assay: alanine-scanning peptide array
T15 construct: Alanine variant; the entry already holds the change
T15 peptide: RVEALRKKL

[18] = target: T16, PTH peptide RVEWLRKKL (amino acids 20-28, wild type); assay: alanine-scanning peptide array
T16 construct: Peptide on a custom peptide array; also called wild-type peptide
T16 peptide: RVEWLRKKL

[19] = target: T17, PTH 20-28 peptide RVEWARKKL; assay: alanine-scanning peptide array
T17 construct: Alanine variant; the entry already holds the change
T17 peptide: RVEWARKKL

Human PTH (1-84) [20] = target: T1, Human PTH (1-84); assay: BiaCore, 37° C., 84mer
[21] = target: T18, endogenous human PTH in pooled serum from hemodialysis patients (human, UniProt P01270 32-115, limits assumed); assay: immunoassay-based Scatchard analysis in pooled serum of hemodialysis patients
T18 construct: Circulating hormone; may be a mix of intact PTH and fragments
T18 sequence (looked up): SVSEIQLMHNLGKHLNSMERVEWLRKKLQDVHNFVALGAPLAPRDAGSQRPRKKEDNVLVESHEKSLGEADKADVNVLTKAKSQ

Human PTH (1-34) [22] = target: T6, Human PTH (1-34); assay: cell-based or functional assay

B1: anti-PTH mAb 183 (antibody, human IgG2, V domains shown)
VH: EVQLVQSGAEVKKPGESLKISCKGSGYSFTSYWIGWVRQMPGKGLEWMGIISPGDSDTRYSPSFQGQVTISADKSISTAYLQWSSLKASDTAMYYCARQGDYVWGSYDSWGQGTLVTVSS
VL: DIVMTQTPLSLSVTPGRPASISCKSSQSLLDSDGKTYLYWYLQKPGQPPQLLIYEVSNRFSGVPDRFSGSGSGTDFTLRISRVEAEDVGIYFCMPSIHLWTFGQGTKVEIK
OD (Human PTH (1-84) [1]): 1.4 OD450
OD (Rat PTH (1-84) [2]): 0.62 OD450
OD (Human PTH (7-84)): 1.95 OD450
OD (Human PTH (18-48)): 3.26 OD450
binding result [3]: no binding (tested: 5 µg/mL PTHrp)
Kd (Human PTH (1-34) [4]): 100 pM
IC50 (read off the curve) (Human PTH (1-34) [5]): ~100000 pM
Kd (Human PTH (1-34) [6]): 80 pM
KD High (Human PTH (1-84) [7]): 39 pM
KD Low (Human PTH (1-84) [7]): 12 pM
Kd (Human PTH (1-84) [7]): 22 pM
KD High (Rat PTH (1-84) [8]): 5000 pM
KD Low (Rat PTH (1-84) [8]): 2000 pM
Kd (Rat PTH (1-84) [8]): 3000 pM
KD High (Human PTH (1-34) [9]): 65 pM
KD Low (Human PTH (1-34) [9]): 14 pM
Kd (Human PTH (1-34) [9]): 33 pM
KD High (Cynomolgus PTH (1-84)): 18 pM
KD Low (Cynomolgus PTH (1-84)): 5 pM
Kd (Cynomolgus PTH (1-84)): 10 pM
binding result [10]: no binding
binding result [11]: no binding
binding result [12]: no binding
binding result [13]: binds
binding result [14]: no binding
binding result [15]: no binding
binding result [16]: no binding
binding result [17]: binds
binding result [18]: binds
binding result [19]: no binding
Kd (Human PTH (1-84) [20]): 1000 pM
Kd [21]: 60 pM
IC50 of calcium influx in UMR-106 cells (FLIPR) (Human PTH (1-34) [22]): ~100000 pM

Source: patent publication US20060062783A1 (Amgen, published 2006)
